{"source": "paper PMC6120983", "about": "“Chimeric Proteins Containing MAP-1 and Functional Domains of C4b-Binding Protein Reveal Strong Complement Inhibitory Capacities” (Frontiers in Immunology, 2018)", "molecules": {"B1": {"name": "C4BP^1−5:MAP-1 (other)", "chain": "NCGPPPTLSFAAPMDITLTETRFKTGTTLKYTCLPGYVRSHSTQTLTCNSDGEWVYNTFCIYKRCRHPGELRNGQVEIKTDLSFGSQIEFSCSEGFFLIGSTTSRCEVQDRGVGWSHPLPQCEIVKCKPPPDIRNGRHSGEENFYAYGFSVTYSCDPRFSLLGHASISCTVENETIGVWRPSPPTCEKITCRKPDVSHGEMVSGFGPIYNYKDTIVFKCQKGFVLRGSSVIHCDADSKWNPSPPACEPNSCINLPDIPHASWETYPRPTKEDVYVVGTVLRYRCHPGYKPTTDEPTTVICQKNLRWTPYQGCEAHTVELNNMFGQIQSPGYPDSYPSDSEVTWNITVPDGFRIKLYFMHFNLESSYLCEYDYVKVETEDQVLATFCGRETTDTEQTPGQEVVLSPGSFMSITFRSDFSNEERFTGFDAHYMAVDVDECKEREDEELSCDHYCHNYIGGYYCSCRFGYILHTDNRTCRVECSDNLFTQRTGVITSPDFPNPYPKSSECLYTIELEEGFMVNLQFEDIFDIEDHPEVPCPYDYIKIKVGPKVLGPFCGEKAPEPISTQSHSVLILFHSDNSGENRGWRLSYRAAGNECPELQPPVHGKIEPSQAKYFFKDQVLVSCDTGYKVLKDNVEMDTFQIECLKDGTWSNKIPTCKKNEIDLESELKSEQVTE"}}, "key": {"recombinant MBL [1]": {"target": "T1, recombinant MBL (UniProt P11226 21-248)", "T1 sequence (P11226 21-248)": "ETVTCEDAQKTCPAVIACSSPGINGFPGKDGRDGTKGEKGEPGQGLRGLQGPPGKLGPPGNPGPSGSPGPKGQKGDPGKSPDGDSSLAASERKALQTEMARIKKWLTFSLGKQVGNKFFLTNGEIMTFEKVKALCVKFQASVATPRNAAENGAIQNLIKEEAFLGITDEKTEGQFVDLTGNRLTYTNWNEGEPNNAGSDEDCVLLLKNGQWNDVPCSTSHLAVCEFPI"}, "MAP-1:C4BP^1−5 (human)": {"target": "MAP-1:C4BP^1−5 (human) (UniProt P48740)", "experiment": "SEC; 50 μg on Superdex 200 HR 10/30, 0.5 ml/min, TBS/Ca^2+ (5 mM CaCl2); fractions checked by sandwich ELISA (anti-C4BP capture, anti-MAP-1 detection)"}, "recombinant MBL [2]": {"target": "T1, recombinant MBL", "experiment": "ELISA; rMBL or rCL-11 (2 μg/ml) held on mannan-coated wells; serial dilutions of the proteins from 13.5 nM in TBS/Tween/Ca^2+ (5 mM CaCl2), 2 h; detected with biotinylated anti-MASP-1/-3/MAP-1 mAb 8B3; Kd = concentration at half of the maximum binding, fit specific binding with Hill slope, Bmax shared"}, "recombinant CL-11": {"target": "T2, recombinant CL-11 (UniProt Q9BWP8 26-271)", "T2 construct": "collectin-11 (CL-11, CL-K1); Held on mannan-coated wells in the ELISA; also called rCL-11; collectin-11; source: produced in house", "T2 sequence (Q9BWP8 26-271)": "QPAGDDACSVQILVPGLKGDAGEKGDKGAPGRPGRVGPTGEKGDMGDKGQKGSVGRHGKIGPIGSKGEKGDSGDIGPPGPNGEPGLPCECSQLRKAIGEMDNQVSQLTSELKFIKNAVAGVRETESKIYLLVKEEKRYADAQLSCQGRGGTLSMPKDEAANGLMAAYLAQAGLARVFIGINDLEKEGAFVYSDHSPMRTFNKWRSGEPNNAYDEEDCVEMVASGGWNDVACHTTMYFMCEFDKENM", "experiment": "ELISA; rMBL or rCL-11 (2 μg/ml) held on mannan-coated wells; serial dilutions of the proteins from 13.5 nM in TBS/Tween/Ca^2+ (5 mM CaCl2), 2 h; detected with biotinylated anti-MASP-1/-3/MAP-1 mAb 8B3; Kd = concentration at half of the maximum binding, fit specific binding with Hill slope, Bmax shared"}, "recombinant MBL [3]": {"target": "T1, recombinant MBL", "experiment": "cell-based or functional assay"}, "C4BP^1−5:MAP-1": {"target": "B1", "experiment": "SEC; 50 μg on Superdex 200 HR 10/30, 0.5 ml/min, TBS/Ca^2+ (5 mM CaCl2); fractions checked by sandwich ELISA (anti-C4BP capture, anti-MAP-1 detection)", "conditions": "both partners purified"}}, "note": "Read-outs that look alike come from different tables or passages of the source."}
{"molecule": "MAP-1:C4BP^1−5 (from UniProt P48740-3 20-380)", "values": [{"measurement": "IC50 of C3 deposition (ELISA; inhibitor pre-incubated on mannan-bound rMBL, then 2% MBL defect serum)", "setting": "recombinant MBL [1]", "value": 0.36, "unit": "nM"}, {"measurement": "IC50 of C4 deposition (ELISA; inhibitor pre-incubated on mannan-bound rMBL, then 2% MBL defect serum)", "setting": "recombinant MBL [1]", "value": 0.45, "unit": "nM"}, {"measurement": "IC50 of TCC deposition (ELISA; inhibitor pre-incubated on mannan-bound rMBL, then 2% MBL defect serum)", "setting": "recombinant MBL [1]", "value": 0.17, "unit": "nM"}, {"measurement": "stoichiometry N", "setting": "MAP-1:C4BP^1−5 (human)", "value": 2}, {"measurement": "Kd", "setting": "recombinant MBL [2]", "value": 0.35, "unit": "nM"}, {"measurement": "Kd", "setting": "recombinant CL-11", "value": 1.97, "unit": "nM"}]}
{"molecule": "recombinant MAP-1 (natural protein, human, UniProt P48740-3 20-380, looked up) HTVELNNMFGQIQSPGYPDSYPSDSEVTWNITVPDGFRIKLYFMHFNLESSYLCEYDYVKVETEDQVLATFCGRETTDTEQTPGQEVVLSPGSFMSITFRSDFSNEERFTGFDAHYMAVDVDECKEREDEELSCDHYCHNYIGGYYCSCRFGYILHTDNRTCRVECSDNLFTQRTGVITSPDFPNPYPKSSECLYTIELEEGFMVNLQFEDIFDIEDHPEVPCPYDYIKIKVGPKVLGPFCGEKAPEPISTQSHSVLILFHSDNSGENRGWRLSYRAAGNECPELQPPVHGKIEPSQAKYFFKDQVLVSCDTGYKVLKDNVEMDTFQIECLKDGTWSNKIPTCKKNEIDLESELKSEQVTE", "values": [{"measurement": "IC50 of C3 deposition (ELISA; inhibitor pre-incubated on mannan-bound rMBL, then 2% MBL defect serum)", "setting": "recombinant MBL [3]", "value": 3.35, "unit": "nM"}, {"measurement": "IC50 of C4 deposition (ELISA; inhibitor pre-incubated on mannan-bound rMBL, then 2% MBL defect serum)", "setting": "recombinant MBL [3]", "value": 0.14, "unit": "nM"}, {"measurement": "IC50 of TCC deposition (ELISA; inhibitor pre-incubated on mannan-bound rMBL, then 2% MBL defect serum)", "setting": "recombinant MBL [3]", "value": 0.46, "unit": "nM"}]}
{"molecule": "B1", "values": [{"measurement": "IC50 of C3 deposition (ELISA; inhibitor pre-incubated on mannan-bound rMBL, then 2% MBL defect serum)", "setting": "recombinant MBL [3]", "value": 7.72, "unit": "nM"}, {"measurement": "IC50 of C4 deposition (ELISA; inhibitor pre-incubated on mannan-bound rMBL, then 2% MBL defect serum)", "setting": "recombinant MBL [3]", "value": 1.2, "unit": "nM"}, {"measurement": "IC50 of TCC deposition (ELISA; inhibitor pre-incubated on mannan-bound rMBL, then 2% MBL defect serum)", "setting": "recombinant MBL [3]", "value": 0.92, "unit": "nM"}, {"measurement": "Kd", "setting": "recombinant MBL [2]; both partners purified", "value": 0.56, "unit": "nM"}]}
{"molecule": "C4BP^1−5:MAP-1 (other, (Gly4Ser)3 linker between C4BP CCP1-5 and MAP-1 left out of the pieces; CCP1-5 limits from Sushi 1-5 features; MAP-1 (MAp44, NM_001031849.2) is the 380-aa MASP1 isoform, signal peptide 1-19 removed …) NCGPPPTLSFAAPMDITLTETRFKTGTTLKYTCLPGYVRSHSTQTLTCNSDGEWVYNTFCIYKRCRHPGELRNGQVEIKTDLSFGSQIEFSCSEGFFLIGSTTSRCEVQDRGVGWSHPLPQCEIVKCKPPPDIRNGRHSGEENFYAYGFSVTYSCDPRFSLLGHASISCTVENETIGVWRPSPPTCEKITCRKPDVSHGEMVSGFGPIYNYKDTIVFKCQKGFVLRGSSVIHCDADSKWNPSPPACEPNSCINLPDIPHASWETYPRPTKEDVYVVGTVLRYRCHPGYKPTTDEPTTVICQKNLRWTPYQGCEAHTVELNNMFGQIQSPGYPDSYPSDSEVTWNITVPDGFRIKLYFMHFNLESSYLCEYDYVKVETEDQVLATFCGRETTDTEQTPGQEVVLSPGSFMSITFRSDFSNEERFTGFDAHYMAVDVDECKEREDEELSCDHYCHNYIGGYYCSCRFGYILHTDNRTCRVECSDNLFTQRTGVITSPDFPNPYPKSSECLYTIELEEGFMVNLQFEDIFDIEDHPEVPCPYDYIKIKVGPKVLGPFCGEKAPEPISTQSHSVLILFHSDNSGENRGWRLSYRAAGNECPELQPPVHGKIEPSQAKYFFKDQVLVSCDTGYKVLKDNVEMDTFQIECLKDGTWSNKIPTCKKNEIDLESELKSEQVTE", "values": [{"measurement": "stoichiometry N", "setting": "C4BP^1−5:MAP-1", "value": 2}, {"measurement": "Kd", "setting": "recombinant CL-11; both partners purified", "value": 5.49, "unit": "nM"}]}
